According to patent US20030224390A1, “Method of identifying conformation-sensitive binding peptides and uses thereof” (Karo Bio AB, priority 2000, published 2003):

Key:
glucocorticoid receptor = target: T1, glucocorticoid receptor (Homo sapiens, UniProt P04150); assay: Mammalian cell based peptide/GR interaction assay in Huh-7 cells, 96-/384-well luciferase
T1 construct: expressed in transfected cells; host or cells: Huh-7 cells
T1 sequence (P04150 1-777): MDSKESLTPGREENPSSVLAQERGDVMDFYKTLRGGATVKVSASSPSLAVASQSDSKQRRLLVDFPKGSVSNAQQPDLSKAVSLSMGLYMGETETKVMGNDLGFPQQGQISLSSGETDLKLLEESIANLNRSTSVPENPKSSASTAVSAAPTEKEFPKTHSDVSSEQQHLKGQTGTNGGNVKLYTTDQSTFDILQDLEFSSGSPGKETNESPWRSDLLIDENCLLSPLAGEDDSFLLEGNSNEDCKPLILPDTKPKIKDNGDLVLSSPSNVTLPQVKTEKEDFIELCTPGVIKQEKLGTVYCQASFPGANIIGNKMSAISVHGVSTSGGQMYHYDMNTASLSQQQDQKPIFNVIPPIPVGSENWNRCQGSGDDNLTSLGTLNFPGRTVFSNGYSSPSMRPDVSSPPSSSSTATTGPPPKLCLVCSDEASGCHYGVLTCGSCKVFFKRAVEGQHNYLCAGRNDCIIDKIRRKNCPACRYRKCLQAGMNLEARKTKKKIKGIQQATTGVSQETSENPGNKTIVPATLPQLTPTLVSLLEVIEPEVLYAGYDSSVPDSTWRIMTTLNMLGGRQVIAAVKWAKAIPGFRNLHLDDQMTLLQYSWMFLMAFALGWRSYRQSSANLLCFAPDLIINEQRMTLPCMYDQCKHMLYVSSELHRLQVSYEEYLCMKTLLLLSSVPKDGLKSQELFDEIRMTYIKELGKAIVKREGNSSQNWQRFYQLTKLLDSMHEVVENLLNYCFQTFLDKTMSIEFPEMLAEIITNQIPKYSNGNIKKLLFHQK
From the text: (§1) We have performed a limited amount of in vivo screenings for peptides to GR in the yeast based system using full-length receptor and either dexamethasone or medroxyprogesterone acetate as ligands. We have a single peptide sequence that we have followed up on based on its specificity profile in yeast. This peptide was isolated on MPA liganded GR, and is termed GRMPA. Its sequence is as follows: […] (SEQ ID NO:268).
We have isolated numerous peptides using phage display to the GR ligand binding domain and have formatted cell based assays in mammalian cells for screening large compound sets. We have formatted the assay as stated above for 96-well plates and for 384-well plates. To format the assay to 384-well plates the number of cells per well were scaled down to 5,000 Huh-7 cells per well. Similar ratios of DNA constructs and lipection reagents were used in both assays for transfections prior to seeding the cells into the assay plates. We have also carried out a screen of a 60,000 compound set with one of the phage display isolated peptides in this mammalian cell based format. This peptide interacts with the glucocorticoid receptor in the presence of both agonists (e.g. fluticasone propionate and dexamethasone) and antagonists (RU486). For the compound screen cells were transfected in suspension with DNA constructs as described above prior to seeding 5,000 cells per well. […]

[1] = target: T2, Glucocorticoid Receptor (GR) (Homo sapiens, UniProt P04150); assay: Yeast based two-hybrid system with full-length GR (Example 503); format: cell-based
T2 construct: peptides to GR in the yeast based system using full-length receptor; expressed in transfected cells; host or cells: yeast
T2 sequence (P04150 1-777): T1 sequence (P04150 1-777)
From the text: as §1

ERβ = ERβ (Homo sapiens, UniProt Q92731); assay: Phage ELISA fingerprint: peptide binding to immobilized ER β with modulator present (Table 14B); settings: nafoxidine (10 μM)
ER α = target: T3, ER α (Homo sapiens, UniProt P03372); assay: Phage ELISA fingerprint: peptide binding to immobilized ER α with modulator present (Table 14A); settings: ICI 182,780 (1 μM)
T3 sequence (P03372 1-595): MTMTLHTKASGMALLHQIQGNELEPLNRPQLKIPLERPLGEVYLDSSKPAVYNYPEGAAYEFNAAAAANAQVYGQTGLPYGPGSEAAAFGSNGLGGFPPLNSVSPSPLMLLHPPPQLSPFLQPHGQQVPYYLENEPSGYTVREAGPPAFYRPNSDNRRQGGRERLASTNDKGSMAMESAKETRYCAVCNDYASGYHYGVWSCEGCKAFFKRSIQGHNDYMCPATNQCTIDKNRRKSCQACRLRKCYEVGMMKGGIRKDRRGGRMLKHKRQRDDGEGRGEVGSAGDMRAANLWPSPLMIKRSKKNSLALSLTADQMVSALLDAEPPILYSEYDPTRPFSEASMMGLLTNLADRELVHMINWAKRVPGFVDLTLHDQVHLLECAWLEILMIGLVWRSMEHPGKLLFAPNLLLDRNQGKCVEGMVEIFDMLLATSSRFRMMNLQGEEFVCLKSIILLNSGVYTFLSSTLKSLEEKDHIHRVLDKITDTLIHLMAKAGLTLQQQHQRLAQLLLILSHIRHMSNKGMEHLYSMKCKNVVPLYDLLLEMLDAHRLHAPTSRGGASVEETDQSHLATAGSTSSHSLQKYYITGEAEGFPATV

Sequence of ERβ (Q92731 whole entry, species assumed): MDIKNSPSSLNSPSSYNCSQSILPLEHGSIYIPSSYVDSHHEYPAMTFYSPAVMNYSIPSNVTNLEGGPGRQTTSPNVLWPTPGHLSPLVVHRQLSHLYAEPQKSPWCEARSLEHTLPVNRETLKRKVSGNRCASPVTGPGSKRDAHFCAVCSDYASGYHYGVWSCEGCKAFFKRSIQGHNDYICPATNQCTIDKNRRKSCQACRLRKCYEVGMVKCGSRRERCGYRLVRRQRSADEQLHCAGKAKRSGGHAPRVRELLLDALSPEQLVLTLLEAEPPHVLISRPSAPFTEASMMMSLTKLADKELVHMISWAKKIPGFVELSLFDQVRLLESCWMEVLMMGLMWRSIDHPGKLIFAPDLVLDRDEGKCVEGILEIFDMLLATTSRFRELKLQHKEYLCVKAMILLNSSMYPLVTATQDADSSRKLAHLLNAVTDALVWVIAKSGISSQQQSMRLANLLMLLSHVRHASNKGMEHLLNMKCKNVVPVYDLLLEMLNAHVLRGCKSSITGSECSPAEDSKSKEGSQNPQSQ

EFVARYGQLLGWRHPCS [GRMPA]
Interaction with GR in the presence of all ligands (agonists, partial agonists, and antagonists) (glucocorticoid receptor): interacted | Interaction with GR in the presence of partial agonists ([1]; MPA, cortivazol, and deoxycorticosterone): interacted | Interaction with GR in the presence of antagonists ([1]; RU486): interacted | Interaction with GR in the presence of full agonists ([1]; fluticasone propionate and dexamethasone): not

SRLPPSVFSMCGSEVCLSR [9Tβ]
Class Specific Fingerprint on ERβ: peptide binding, Nafoxidine present (ERβ): 5 | Class Specific Fingerprint on ERα: peptide binding, ICI 182,780 present (ER α): 0
